Patent US8741844B2, “Use of mutated antithrombins for treating or preventing coagulation disorders” (Universite Paris-Sud XI, priority 2007, dated 2014)
Changes are numbered by the printed parent chain.

B1: AT-ΔR393: human antithrombin with deletion of the amino acid at position 393 (protein, listed as Homo sapiens)
chain: HGSPVDICTAKPRDIPMNPMCIYRSPEKKATEDEGSEQKIPEATNRRVWELSKANSRFATTFYQHLADSKNDNDNIFLSPLSISTAFAMTKLGACNDTLQQLMEVFKFDTISEKTSDQIHFFFAKLNCRLYRKANKSSKLVSANRLFGDKSLTFNETYQDISELVYGAKLQPLDFKENAEQSRAAINKWVSNKTEGRITDVIPSEAINELTVLVLVNTIYFKGLWKSKFSPENTRKELFYKADGESCSASMMYQEGKFRYRRVAEGTQVLELPFKGDDITMVLILPKPEKSLAKVEKELTPEVLQEWLDELEEMMLVVHMPRFRIEDGFSLKEQLQDMGLVDLFSPEKSKLPGIVAEGRDDLYVSDAFHKAFLEVNEEGSEAAASTAVVIAGSLNPNRVTFKANRPFLVFIREVPLNTIIFMGRVANPCVK
B2: AT-ΔS394: human antithrombin with deletion of the amino acid at position 394 (protein, listed as Homo sapiens)
chain: B1 chain with S393R

System: pentasaccharide bound plasma antithrombin (plasma anti-factor Xa activity)
Assay: Rotachrom heparin anti factor Xa assay in pentasaccharide containing human plasma (competition with plasma antithrombin for pentasaccharide binding)
Assay type: biochemical
Conditions: human plasma, pre-incubation 30 min at 37° C.
Protocol: Anti factor Xa inhibitory activity of mutated antithrombins AT-R393H(SEQ ID NO: 4), AT-Pro394 (SEQ ID NO: 6), AT-ΔR393-5394 (SEQ ID NO: 18), AT-ΔR393 (SEQ ID NO: 8), AT-ΔS394 (SEQ ID NO: 10), AT-N135Q-R393H(SEQ ID NO: 14), AT-N135Q-Pro394 (SEQ ID NO: 16), AT-N135Q-ΔR393-S394 (SEQ ID NO: 24), AT-N135Q-ΔR393 (SEQ ID NO: 20), AT-N135Q-ΔS394 (SEQ ID NO: 22) is measured in pentasaccharide containing plasma. The plasma concentrations of pentasaccharides are defined on the basis on those measured in patients treated by the pentasaccharide under the conditions of a regular (curative) use of this molecule or in patients presenting an overdose of this drug, knowing that the optimal equilibrium concentration is 1.20-1.26 mg/L and the minimal equilibrium concentration is 0.46-0.62 mg/L during a curative pentasaccharide treatment (monograph, Arixtra®).
The anti factor Xa assay is performed using the Rotachrom® heparin method (Stago) adaptated for absorbance reading on a microplate reader (Dynatech MR 5000), or a STA analyser (Stago).
The procedure consists in mixing 30 μl of pentasaccharide containing plasma sample diluted four times in kinetic buffer, with 75 μl of chromogenic substrate (1 mM, provided in Rotachrom® heparin kit). After 4 min incubation, 75 μl of bovine factor Xa (24 nM, Rotachrom® heparin kit) is added to the plasma-substrate mixture. The factor Xa activity is measured a 405 nm absorbance increase, resulting from cleavage of the chromogenic substrate, using a microplate reader (Dynatech MR 5000). The rate constant (k), proportional to anti-factor Xa activity, is obtained by fitting the substrate hydrolysis curve to equation (3) or (3′).
Firstly, the assay is calibrated in citrated (0.105 M) normal human plasma containing pentasaccharide concentrations ranging from 0 to 3 mg/L. A standard curve is generated and anti-factor Xa activity is expressed as mg of pentasaccharide per liter of plasma.
Secondly, to evaluate the anti factor Xa inhibitory activity of mutated antithrombins, the mutated antithrombin (0-0.6 g/L, preferably 0.15-0.6 g/L, final concentration, in kinetic buffer) is pre-incubated with an equal volume of pentasaccharide (0-3 mg/L, preferably 1-3 mg/L) containing plasma samples, during 30 min at 37° C.
Under these conditions, the mutated antithrombin concentration range from one to four times that of the plasma antithrombin level, which is compatible with a therapeutic use of antithrombin. Indeed, very high doses of mutated antithrombin, with a 5 fold increase in plasma antithrombin level, have already been used during clinical trials without side effects (Leitner J M, Firbas C, Mayr F B, Reiter R A, Steinlechner B, Jilma B., Recombinant human antithrombin inhibits thrombin formation and interleukin 6 release in human endotoxemia. Clin Pharmacol Ther. 2006 January; 79(1):23-34). Anti factor Xa inhibitory activity is then evaluated as previously described.
To estimate whether mutated antithrombin can be used as reversal of pentasaccharide in case of over-dosing, AT-N135Q-R393H(SEQ ID NO: 14) and AT-N135Q-Pro394 (SEQ ID NO: 16) are tested in Rotachrom® heparin assay for their ability to restore factor Xa activity. Under conditions of treatment for prevention of venous thromboembolic events, optimal pentasaccharide concentration ranges between 1.2 and 1.26 μg/mL in plasma. To mimic an over-dosing, pentasaccharide is added to human plasma pool at concentration of 3 μg/ml. Rotachrom® heparin assay is then performed by incubation of plasma over-dosed with pentasaccharide in the presence of mutated antithrombin in a ratio 1/1, 2/1, and 4/1 compared to plasma antithrombin concentration (i.e. 0.15, 0.3, 0.6 g/l). In this ex vivo assay, anti-factor Xa activity is proportional to the amount of pentasaccharide bound natural antithrombin present in tested plasma, which amount is directly proportional to pentasaccharide concentration in plasma. […]

Molecule | effect on anti-Xa activity of pentasaccharide containing plasma sample
B1 | significant decrease
B2 | significant decrease
